Test results: paper PMC10624832

Columns and labels:
[1] = molecular target: Hsp70 T204A,S494C-AF488 (C267A, C574A, C603A); assay: fluorescence polarisation; steady-state fluorescence anisotropy; 100 nM Hsp70 T204A,S494C-AF488 titrated with 0-1.0 mM full-length DNAJB6 WT or mutants; 20 min at 37 °C; 50 mM HEPES pH 8.0, 200 mM KCl, 10 mM MgCl, 2 mM ATP; one-site binding model
[2] = molecular target: Hsp70 (UniProt P11142)
[3] = molecular target: Hsp70 (UniProt P11142); remark: listed apart in the source
[4] = molecular target: Hsp70 (UniProt P11142); remark: listed apart in the source
[5] = molecular target: Hsp70 (UniProt P11142); remark: listed apart in the source

Sequence of DNAJB6^JD (res. 1-72) (O75190 1-72): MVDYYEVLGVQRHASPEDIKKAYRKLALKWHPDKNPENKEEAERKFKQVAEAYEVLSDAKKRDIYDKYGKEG
Sequence of DNAJB6^WT (isoform b), full-length oligomeric, O75190-2 1-241 (natural protein) (O75190 other isoform, or with tags, fused parts or gaps): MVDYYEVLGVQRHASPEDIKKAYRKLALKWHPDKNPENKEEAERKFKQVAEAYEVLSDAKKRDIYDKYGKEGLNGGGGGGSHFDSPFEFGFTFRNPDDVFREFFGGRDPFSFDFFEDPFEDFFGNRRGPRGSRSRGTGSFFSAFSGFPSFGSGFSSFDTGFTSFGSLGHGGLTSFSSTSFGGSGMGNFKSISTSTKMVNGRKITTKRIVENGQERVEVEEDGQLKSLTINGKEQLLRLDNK
Sequence of DNAJB6^JD-GF WT (res. 1-109) (O75190 1-109): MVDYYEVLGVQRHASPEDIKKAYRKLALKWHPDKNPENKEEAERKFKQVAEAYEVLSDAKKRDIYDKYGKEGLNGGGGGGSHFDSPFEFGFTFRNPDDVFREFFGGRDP

Substance: full-length DNAJB6 F100V (from UniProt O75190-2 1-241) (natural protein)
- Kd [1]: 1.5 µM

Substance: DNAJB6^JD-GF F100V (from UniProt O75190 1-109) (domain or fragment)
- steady-state ATPase activity of Hsp70 (initial rate of phosphate release); roughly 6-8-fold increase [2]: 1.64 nM Pi min^−1

Substance: DNAJB6^JD (res. 1-72) (from UniProt O75190 1-72) (domain or fragment)
- steady-state ATPase activity of Hsp70 (initial rate of phosphate release, PBP fluorescence); 0.25 μM Hsp70, 0.25 μM DNAJB6 variant [3]: 1.74 nM Pi min^−1

Substance: DNAJB6^JD-GF P96R (from UniProt O75190 1-109) (domain or fragment)
- steady-state ATPase activity of Hsp70, fold enhancement of ATP hydrolysis rate [2]: 4 fold

Substance: full-length DNAJB6 P96R (from UniProt O75190-2 1-241) (natural protein)
- Kd [1]: 47 µM

Substance: DNAJB6^JD-GF E54A (from UniProt O75190 1-109) (domain or fragment)
- steady-state ATPase activity of Hsp70, fold enhancement of ATP hydrolysis rate [2]: 4 fold

Substance: full-length DNAJB6 A50V (from UniProt O75190-2 1-241) (natural protein)
- Kd [1]: 9 µM

Substance: DNAJB6^JD-GF WT (res. 1-109) (from UniProt O75190 1-109) (domain or fragment)
- steady-state ATPase activity of Hsp70, fold activation over Hsp70 alone [4]: 1.6 fold

Substance: DNAJB6^WT (isoform b), full-length oligomeric, O75190-2 1-241 (natural protein)
- steady-state ATPase activity of Hsp70 with full-length oligomeric DNAJB6, fold activation [5]: 1.4 fold

Substance: DNAJB6^WT (isoform b), full-length oligomeric (from UniProt O75190-2 1-241) (natural protein)
- Kd [1]: > 10000 µM

Substance: full-length DNAJB6 F91I (from UniProt O75190-2 1-241) (natural protein)
- Kd [1]: 600 µM

Substance: DNAJB6^JD-GF A50V (from UniProt O75190 1-109) (domain or fragment)
- steady-state ATPase activity of Hsp70 (initial rate of phosphate release); roughly 6-8-fold increase [2]: 1.24 nM Pi min^−1

Substance: full-length DNAJB6 F93L (from UniProt O75190-2 1-241) (natural protein)
- Kd [1]: 290 µM
